From patent US20220332804A1 (CSL INNOVATION, published 2022)

Tests used:
Assay in all cases: SPR, mAb captured, C2 mutant analyte;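 further: Anti-C2 mAbs captured on goat anti-human IgG Biacore CM5 chips, alanine or serine C2 surface mutants flowed over at 37 °C, double-referenced sensorgrams fitted to a 1:1 binding model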
human C2 N403A = target: T1, human C2 N403A (human, UniProt P06681 21-752)
T1 sequence: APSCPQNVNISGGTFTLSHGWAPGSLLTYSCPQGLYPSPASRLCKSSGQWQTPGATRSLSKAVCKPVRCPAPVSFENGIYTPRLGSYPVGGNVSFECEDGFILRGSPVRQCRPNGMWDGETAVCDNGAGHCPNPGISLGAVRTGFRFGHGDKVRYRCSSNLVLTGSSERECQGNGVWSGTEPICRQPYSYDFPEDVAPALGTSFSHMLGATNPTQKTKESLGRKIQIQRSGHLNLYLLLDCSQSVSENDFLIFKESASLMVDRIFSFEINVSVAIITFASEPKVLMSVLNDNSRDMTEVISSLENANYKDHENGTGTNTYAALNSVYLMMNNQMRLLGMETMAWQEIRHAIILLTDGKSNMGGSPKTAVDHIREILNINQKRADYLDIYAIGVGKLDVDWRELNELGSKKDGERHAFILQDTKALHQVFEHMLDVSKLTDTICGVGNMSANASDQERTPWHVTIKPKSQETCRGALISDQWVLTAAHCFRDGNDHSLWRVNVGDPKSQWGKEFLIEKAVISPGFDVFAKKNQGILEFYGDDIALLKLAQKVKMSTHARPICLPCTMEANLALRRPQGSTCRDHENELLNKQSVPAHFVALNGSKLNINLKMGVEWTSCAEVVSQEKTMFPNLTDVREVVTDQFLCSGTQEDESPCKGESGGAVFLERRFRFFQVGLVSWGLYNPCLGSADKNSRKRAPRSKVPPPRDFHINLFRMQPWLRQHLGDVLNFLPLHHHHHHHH
Experimental: (§1) Surface plasmon resonance (SPR, Biacore) was used for all binding affinity analyses. In brief, goat anti-human IgG was directly immobilised onto the carboxymethyl dextran surface of CM5 sensorchips to approximately 12,000 RU using standard NHS/EDC chemistry at pH 5. The immobilised antibody surface was pre-conditioned with ten injections of polyclonal human IgG (Privigen 60 s) prepared at 1 μg/mL. Ligands (anti-C2 mAbs) were captured at the beginning of each cycle as described below. An adjacent spot or flow cell in which only Polyclonal IgG was capture was used as a reference surface. The goat anti-human IgG Fc antibody surface was regenerate in 100 mM H3PO4, injected for 45 seconds at the end of each cycle. Experiments were performed at 37° C. and the flow rate of each experiment was kept constant at 30 μL/min.
(§2) Sensogram data was double-referenced against a reference anti-IgG surface (i.e. minus anti-C2 mAb) and blank buffer injections obtained within each experiment. The binding data was fit to 1:1 (kinetic or steady-state) model using local Rmax and null refraction index (RI=0) when appropriate. Buffers and solutions were filtered (0.22 μm) prior to use.

human C2 R519A = target: T2, human C2 R519A (human, UniProt P06681 21-752)
T2 sequence: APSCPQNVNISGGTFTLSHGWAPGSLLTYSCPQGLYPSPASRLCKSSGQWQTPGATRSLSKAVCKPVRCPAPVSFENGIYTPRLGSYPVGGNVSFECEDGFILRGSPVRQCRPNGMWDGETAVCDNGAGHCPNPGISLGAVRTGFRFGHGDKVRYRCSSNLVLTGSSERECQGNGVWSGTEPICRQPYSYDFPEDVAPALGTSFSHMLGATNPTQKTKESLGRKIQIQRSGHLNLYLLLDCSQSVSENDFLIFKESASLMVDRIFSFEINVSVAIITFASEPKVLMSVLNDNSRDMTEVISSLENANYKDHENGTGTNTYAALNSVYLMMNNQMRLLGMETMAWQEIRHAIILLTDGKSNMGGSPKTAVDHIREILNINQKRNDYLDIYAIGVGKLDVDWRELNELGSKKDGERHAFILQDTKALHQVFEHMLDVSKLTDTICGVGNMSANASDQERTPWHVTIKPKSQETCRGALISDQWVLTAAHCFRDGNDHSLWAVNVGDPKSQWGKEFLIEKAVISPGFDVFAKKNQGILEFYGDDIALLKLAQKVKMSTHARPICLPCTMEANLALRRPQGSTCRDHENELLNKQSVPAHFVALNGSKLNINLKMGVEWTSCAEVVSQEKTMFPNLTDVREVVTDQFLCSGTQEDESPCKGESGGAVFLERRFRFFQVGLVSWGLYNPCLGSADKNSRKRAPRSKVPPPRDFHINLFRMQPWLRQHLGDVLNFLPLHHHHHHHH
Experimental: as §1, §2

human C2 H446A = target: T3, human C2 H446A (human, UniProt P06681 21-752)
T3 sequence: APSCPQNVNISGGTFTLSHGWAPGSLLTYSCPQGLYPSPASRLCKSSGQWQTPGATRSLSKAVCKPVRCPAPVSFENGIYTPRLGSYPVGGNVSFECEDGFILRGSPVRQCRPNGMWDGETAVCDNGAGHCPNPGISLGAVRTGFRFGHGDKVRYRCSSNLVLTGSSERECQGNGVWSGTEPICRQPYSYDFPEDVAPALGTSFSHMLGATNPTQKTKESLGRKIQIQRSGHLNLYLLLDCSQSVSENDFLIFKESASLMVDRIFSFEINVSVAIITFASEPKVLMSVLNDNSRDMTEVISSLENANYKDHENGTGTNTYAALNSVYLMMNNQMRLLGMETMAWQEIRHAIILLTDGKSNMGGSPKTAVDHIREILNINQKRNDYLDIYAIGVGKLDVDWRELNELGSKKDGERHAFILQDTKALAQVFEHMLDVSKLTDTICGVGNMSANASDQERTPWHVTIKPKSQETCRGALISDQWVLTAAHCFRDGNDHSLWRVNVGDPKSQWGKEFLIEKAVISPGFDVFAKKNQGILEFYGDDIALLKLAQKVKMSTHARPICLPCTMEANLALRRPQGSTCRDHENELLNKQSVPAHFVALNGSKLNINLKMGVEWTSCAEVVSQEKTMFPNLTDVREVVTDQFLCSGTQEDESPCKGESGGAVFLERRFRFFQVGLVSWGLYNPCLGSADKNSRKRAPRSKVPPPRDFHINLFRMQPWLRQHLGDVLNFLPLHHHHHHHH
Experimental: as §1, §2

human C2 M316A = target: T4, human C2 M316A (human, UniProt P06681 21-752)
T4 sequence: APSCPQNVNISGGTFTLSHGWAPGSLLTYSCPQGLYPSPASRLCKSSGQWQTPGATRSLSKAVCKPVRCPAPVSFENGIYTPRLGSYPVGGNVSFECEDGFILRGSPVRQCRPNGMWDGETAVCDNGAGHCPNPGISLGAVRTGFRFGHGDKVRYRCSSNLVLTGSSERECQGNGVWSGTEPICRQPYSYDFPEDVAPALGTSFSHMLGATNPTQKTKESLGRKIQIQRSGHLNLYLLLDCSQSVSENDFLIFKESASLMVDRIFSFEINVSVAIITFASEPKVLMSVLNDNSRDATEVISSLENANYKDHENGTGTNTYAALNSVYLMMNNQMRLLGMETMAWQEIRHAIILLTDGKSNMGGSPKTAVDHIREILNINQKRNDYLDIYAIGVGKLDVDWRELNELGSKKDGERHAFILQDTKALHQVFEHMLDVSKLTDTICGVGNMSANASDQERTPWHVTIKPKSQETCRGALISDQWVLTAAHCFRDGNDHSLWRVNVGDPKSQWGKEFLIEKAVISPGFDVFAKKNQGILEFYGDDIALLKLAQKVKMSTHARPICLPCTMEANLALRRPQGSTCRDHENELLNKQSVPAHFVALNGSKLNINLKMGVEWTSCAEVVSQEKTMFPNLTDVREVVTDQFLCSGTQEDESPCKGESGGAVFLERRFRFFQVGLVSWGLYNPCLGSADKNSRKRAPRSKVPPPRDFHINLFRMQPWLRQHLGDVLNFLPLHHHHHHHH
Experimental: as §1, §2

B1: RF16-214 (antibody, V domains shown)
VH: EVQLLESGGGLVQPGGSLRLSCAASGFTFSWYQMMWVRQAPGKGLEWVSRIYPSGGGTAYADSVKGRFTISRDNSKNTLYLQMNSLRAEDTAVYYCARDAGYGDNWGQGTLVTVSS
VL: QSALTQPPSVSVSPGQTASITCSGDKLGEKYASWYQQKAGQSPVMVIYQDRKRPSGIPERFSGSNSGNTATLTISGTQAMDEADYYCQAWDTRAVVFGGGTKLTVLG
Kd (human C2 N403A): 29.6 nM | Kd (human C2 R519A): 40 nM | Kd (human C2 H446A): 153 nM | Kd (human C2 M316A): 30.2 nM
